The record followed here is the supplement of paper PMC5998384.

Series [1] deals with HeLa Kyoto. The series is described as follows: thermal stability score vs G1/S (z-score of summed log2 fold changes over temperatures); higher = more thermally stable than in G1/S.
For series [2], the system named is HeLa Kyoto. The series is described as follows: solubility change mitosis vs G1/S (difference of NP-40 vs SDS log2 ratios) (log2 ratio difference); higher = more soluble in mitosis.
Series [3] has as its system HeLa Kyoto. The series is described as follows: melting temperature (median over replicates), in situ; higher = more thermally stable.
In series [4] the test system is HeLa Kyoto. In words: solubility in G1/S (NP-40 vs SDS abundance) (log2 ratio); higher = more soluble. Particulars: cell cycle stage: G1/S.
Where [5] appears, read: cell cycle stage: early G1 (4.5 h after nocodazole release).
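Wherever melting temperature (median over replicates), in situ is given: HeLa Kyoto cells synchronized by double thymidine or nocodazole block, proteins quantified by TMT10plex mass spectrometry, three independent biological replicates.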
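Wherever solubility change mitosis vs G1/S (difference of NP-40 vs SDS log2 ratios) is given: synchronized HeLa Kyoto cells (double thymidine block for G1/S, nocodazole release for mitosis), protein amounts in NP-40 versus SDS lysates quantified by mass spectrometry, three biological replicates.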
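Wherever solubility in G1/S (NP-40 vs SDS abundance) is given: HeLa Kyoto cells arrested at G1/S by double thymidine block, proteins quantified by TMT10plex mass spectrometry in mild NP-40 versus SDS extracts, three biological replicates.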
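Wherever thermal stability score vs G1/S (z-score of summed log2 fold changes over temperatures) is given: synchronized HeLa Kyoto cells, proteins quantified by TMT10plex mass spectrometry, three biological replicates, mitosis taken 0.5 h after nocodazole release, G1/S directly after double thymidine block.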

As for “MDVFLMIRRHKTTIFTDAKESSTVFELKRIVEGILKRPPDEQRLYKDDQLLDDGKTLGECGFTSQTARPQAPATVGLAFRADDTFEALCIEPFSSPPELPDVMKPQDSGSSANEQAVQ [TCEB2]”, the values for the thermal stability score with HeLa Kyoto [1] (setting [5]) and in the series on HeLa Kyoto [1] (cell cycle stage: mitosis) were 1.2 and -0.75, respectively. In the series with HeLa Kyoto [2], the “solubility change mitosis (log2)” value worked out at 0.00166. Moreover, the melting temperature in the series on HeLa Kyoto [3] (cell cycle stage: G1/S) was determined as 52 °C; in the series with HeLa Kyoto [3] (cell cycle stage: mitosis), 51.8 °C. The “solubility in G1/S (log2)” value in the series with HeLa Kyoto [4] stood at 0.109.
“MGHRFLRGLLTLLLPPPPLYTRHRMLGPESVPPPKRSRSKLMAPPRIGTHNGTFHCDEALACALLRLLPEYRDAEIVRTRDPEKLASCDIVVDVGGEYDPRRHRYDHHQRSFTETMSSLSPGKPWQTKLSSAGLIYLHFGHKLLAQLLGTSEEDSMVGTLYDKMYENFVEEVDAVDNGISQWAEGEPRYALTTTLSARVARLNPTWNHPDQDTEAGFKRAMDLVQEEFLQRLDFYQHSWLPARALVEEALAQRFQVDPSGEIVELAKGACPWKEHLYHLESGLSPPVAIFFVIYTDQAGQWRIQCVPKEPHSFQSRLPLPEPWRGLRDEALDQVSGIPGCIFVHASGFIGGHRTREGALSMARATLAQRSYLPQIS [C12ORF10]”: the thermal stability score in the series with HeLa Kyoto [1] (setting [5]) is -0.294; in the series with HeLa Kyoto [1] (cell cycle stage: mitosis), -1.46. In addition, the “solubility change mitosis (log2)” value in the series on HeLa Kyoto [2] is -0.074. For the same sequence, the melting temperature worked out at 53.8 °C with HeLa Kyoto [3] (cell cycle stage: G1/S) and 53.9 °C in the series on HeLa Kyoto [3] (cell cycle stage: mitosis). Further, the “solubility in G1/S (log2)” value in the series with HeLa Kyoto [4] was 0.418.
As for “MSGSFELSVQDLNDLLSDGSGCYSLPSQPCNEVTPRIYVGNASVAQDIPKLQKLGITHVLNAAEGRSFMHVNTNANFYKDSGITYLGIKANDTQEFNLSAYFERAADFIDQALAQKNGRVLVHCREGYSRSPTLVIAYLMMRQKMDVKSALSIVRQNREIGPNDGFLAQLCQLNDRLAKEGKLKP [DUSP3]”, the values for the thermal stability score with HeLa Kyoto [1] (setting [5]) and in the series with HeLa Kyoto [1] (cell cycle stage: mitosis) were 0.0996 and -0.0543, respectively. The “solubility change mitosis (log2)” value in the series on HeLa Kyoto [2] was determined as 0.131. In addition, the melting temperature in the series with HeLa Kyoto [3] (cell cycle stage: G1/S) turned out to be 50.4 °C; in the series with HeLa Kyoto [3] (cell cycle stage: mitosis), 51 °C. Besides, in the series on HeLa Kyoto [4], the “solubility in G1/S (log2)” value worked out at 0.676.
Turning to “MEPSSKKLTGRLMLAVGGAVLGSLQFGYNTGVINAPQKVIEEFYNQTWVHRYGESILPTTLTTLWSLSVAIFSVGGMIGSFSVGLFVNRFGRRNSMLMMNLLAFVSAVLMGFSKLGKSFEMLILGRFIIGVYCGLTTGFVPMYVGEVSPTALRGALGTLHQLGIVVGILIAQVFGLDSIMGNKDLWPLLLSIIFIPALLQCIVLPFCPESPRFLLINRNEENRAKSVLKKLRGTADVTHDLQEMKEESRQMMREKKVTILELFRSPAYRQPILIAVVLQLSQQLSGINAVFYYSTSIFEKAGVQQPVYATIGSGIVNTAFTVVSLFVVERAGRRTLHLIGLAGMAGCAILMTIALALLEQLPWMSYLSIVAIFGFVAFFEVGPGPIPWFIVAELFSQGPRPAAIAVAGFSNWTSNFIVGMCFQYVEQLCGPYVFIIFTVLLVLFFIFTYFKVPETKGRTFDEIASGFRQGGASQSDKTPEELFHPLGADSQV [SLC2A1]”, the figures for the thermal stability score in the series on HeLa Kyoto [1] (setting [5]) and with HeLa Kyoto [1] (cell cycle stage: mitosis) were -1.89 and -3.29, respectively. Also, in the series with HeLa Kyoto [2], the “solubility change mitosis (log2)” value is -0.284. The melting temperature in the series on HeLa Kyoto [3] (cell cycle stage: G1/S) was determined as 57.3 °C. Moreover, the “solubility in G1/S (log2)” value with HeLa Kyoto [4] was found to be 0.0648.
On to “MAPVEHVVADAGAFLRHAALQDIGKNIYTIREVVTEIRDKATRRRLAVLPYELRFKEPLPEYVRLVTEFSKKTGDYPSLSATDIQVLALTYQLEAEFVGVSHLKQEPQKVKVSSSIQHPETPLHISGFHLPYKPKPPQETEKGHSACEPENLEFSSFMFWRNPLPNIDHELQELLIDRGEDVPSEEEEEEENGFEDRKDDSDDDGGGWITPSNIKQIQQELEQCDVPEDVRVGCLTTDFAMQNVLLQMGLHVLAVNGMLIREARSYILRCHGCFKTTSDMSRVFCSHCGNKTLKKVSVTVSDDGTLHMHFSRNPKVLNPRGLRYSLPTPKGGKYAINPHLTEDQRFPQLRLSQKARQKTNVFAPDYIAGVSPFVENDISSRSATLQVRDSTLGAGRRRLNPNASRKKFVKKR [NOB1]”, for which the figures for the thermal stability score in the series on HeLa Kyoto [1] (setting [5]) and with HeLa Kyoto [1] (cell cycle stage: mitosis) were 0.938 and 0.387, respectively. Also, the “solubility change mitosis (log2)” value in the series on HeLa Kyoto [2] is 0.197. The melting temperature is 50.3 °C in the series on HeLa Kyoto [3] (cell cycle stage: G1/S) and 49.8 °C with HeLa Kyoto [3] (cell cycle stage: mitosis). For the same sequence, the “solubility in G1/S (log2)” value in the series with HeLa Kyoto [4] was -0.457.
Take “MWSGRSSFTSLVVGVFVVYVVHTCWVMYGIVYTRPCSGDANCIQPYLARRPKLQLSVYTTTRSHLGAENNIDLVLNVEDFDVESKFERTVNVSVPKKTRNNGTLYAYIFLHHAGVLPWHDGKQVHLVSPLTTYMVPKPEEINLLTGESDTQQIEAEKKPTSALDEPVSHWRPRLALNVMADNFVFDGSSLPADVHRYMKMIQLGKTVHYLPILFIDQLSNRVKDLMVINRSTTELPLTVSYDKVSLGRLRFWIHMQDAVYSLQQFGFSEKDADEVKGIFVDTNLYFLALTFFVAAFHLLFDFLAFKNDISFWKKKKSMIGMSTKAVLWRCFSTVVIFLFLLDEQTSLLVLVPAGVGAAIELWKVKKALKMTIFWRGLMPEFQFGTYSESERKTEEYDTQAMKYLSYLLYPLCVGGAVYSLLNIKYKSWYSWLINSFVNGVYAFGFLFMLPQLFVNYKLKSVAHLPWKAFTYKAFNTFIDDVFAFIITMPTSHRLACFRDDVVFLVYLYQRWLYPVDKRRVNEFGESYEEKATRAPHTD [CLPTM1L]”: the thermal stability score was -1.1 in the series with HeLa Kyoto [1] (setting [5]) and -1.25 in the series with HeLa Kyoto [1] (cell cycle stage: mitosis). Further, the “solubility change mitosis (log2)” value in the series with HeLa Kyoto [2] was -0.226. For the same sequence, the values for the melting temperature in the series with HeLa Kyoto [3] (cell cycle stage: G1/S) and in the series with HeLa Kyoto [3] (cell cycle stage: mitosis) were 52.8 °C and 53.2 °C, respectively. Moreover, in the series with HeLa Kyoto [4], the “solubility in G1/S (log2)” value was -0.0724.
